Laboratory results taken from patent publication US20230340054A1.

Target: IL-2 receptor on the cell surface (high and intermediate affinity receptors on human PBMC subsets)
Assay: cell-based or functional assay

In order of rising pSTAT5α levels in CD4+ cells:
1. IgG fusion IL-2 mutein K48I  0.944
2. IgG fusion IL-2 mutein E95N  0.981
3. IgG fusion IL-2 mutein I92V  0.981
4. IgG fusion IL-2 mutein S87E  1
5. IgG fusion IL-2 mutein D109H  1.01
6. IgG fusion IL-2 mutein M104H  1.01
7. IgG fusion IL-2 mutein E106W  1.02
8. IgG fusion IL-2 mutein H16K  1.05
9. IgG fusion IL-2 mutein E15D  1.09
10. IgG fusion IL-2 mutein I92W  1.11
11. IgG fusion IL-2 mutein P34Y  1.11
12. IgG fusion IL-2 mutein K48V  1.12
13. IgG fusion IL-2 mutein D84S  1.2
14. IgG fusion IL-2 mutein N88S  1.2
15. IgG fusion IL-2 mutein D84T  1.21
16. IgG fusion IL-2 mutein K43W  1.24
17. IgG fusion IL-2 mutein M104I  1.25
18. IgG fusion IL-2 mutein D109M  1.28
19. IgG fusion IL-2 mutein E61W  1.3
20. IgG fusion IL-2 mutein L12Y  1.3
21. IgG fusion IL-2 mutein L19V  1.31
22. IgG fusion IL-2 mutein H16R  1.4
23. IgG fusion IL-2 mutein D20T  1.46
24. IgG fusion IL-2 mutein E95S  1.47
25. IgG fusion IL-2 mutein L19F  1.49
26. IgG fusion IL-2 mutein P65E  1.51
27. IgG fusion IL-2 mutein D109W  1.53
28. IgG fusion IL-2 mutein E95Q  1.56
29. IgG fusion IL-2 mutein N71W  1.58
30. IgG fusion IL-2 mutein T111W  1.58
31. IgG fusion IL-2 mutein P65K  1.59
32. IgG fusion IL-2 mutein L72R  1.6
33. IgG fusion IL-2 mutein P65Q  1.6
34. IgG fusion IL-2 mutein D84E  1.61
35. IgG fusion IL-2 mutein E95D  1.62
36. IgG fusion IL-2 mutein E95T  1.64
37. IgG fusion IL-2 mutein L12V  1.64
38. IgG fusion IL-2 mutein T111N  1.64
39. IgG fusion IL-2 mutein L72F  1.65
40. IgG fusion IL-2 mutein E15S  1.66
41. IgG fusion IL-2 mutein P65R  1.67
42. IgG fusion IL-2 mutein P65N  1.71
43. IgG fusion IL-2 mutein T111M  1.74
44. IgG fusion IL-2 mutein H16Y  1.75
45. IgG fusion IL-2 mutein D109K  1.77
46. IgG fusion IL-2 mutein D109R  1.77
47. IgG fusion IL-2 mutein I92F  1.77
48. IgG fusion IL-2 mutein M23I  1.83
49. IgG fusion IL-2 mutein P34W  1.89
50. IgG fusion IL-2 mutein T111H  1.9
51. IgG fusion IL-2 mutein M23L  1.91
52. IgG fusion IL-2 mutein I92Y  1.94
53. IgG fusion IL-2 mutein E68W  1.96
54. IgG fusion IL-2 mutein F42M  1.98
55. IgG fusion IL-2 mutein E68Q  2
56. IgG fusion IL-2 mutein S87T  2
57. IgG fusion IL-2 mutein E68L  2.01
58. IgG fusion IL-2 mutein T111Q  2.1
59. IgG fusion IL-2 mutein E68F  2.19
60. IgG fusion IL-2 mutein L19I  2.22
61. IgG fusion IL-2 mutein D20N  2.23
62. IgG fusion IL-2 mutein K48S  2.23
63. IgG fusion IL-2 mutein L12I  2.35
64. IgG fusion IL-2 mutein E68R  2.36
65. IgG fusion IL-2 mutein K35T  2.39
66. IgG fusion IL-2 mutein T111S  2.47
67. IgG fusion IL-2 mutein E68Y  2.6
68. IgG fusion IL-2 mutein P34F  2.85
69. IgG fusion IL-2 mutein E15T  3.06

In order of falling pSTAT5α levels in CD8+ cells:
1. IgG fusion IL-2 mutein P34F  1.88
2. IgG fusion IL-2 mutein E15T  1.79
3. IgG fusion IL-2 mutein D20T  1.7
4. IgG fusion IL-2 mutein H16R  1.63
5. IgG fusion IL-2 mutein L12I  1.59
6. IgG fusion IL-2 mutein D20N  1.5
7. IgG fusion IL-2 mutein E68Q  1.4
8. IgG fusion IL-2 mutein D109K  1.32
9. IgG fusion IL-2 mutein P65K  1.31
10. IgG fusion IL-2 mutein P34Y  1.29
11. IgG fusion IL-2 mutein E68Y  1.28
12. IgG fusion IL-2 mutein T111Q  1.28
13. IgG fusion IL-2 mutein D109R  1.27
14. IgG fusion IL-2 mutein T111S  1.24
15. IgG fusion IL-2 mutein T111M  1.23
16. IgG fusion IL-2 mutein E68R  1.22
17. IgG fusion IL-2 mutein H16Y  1.21
18. IgG fusion IL-2 mutein I92F  1.2
19. IgG fusion IL-2 mutein K35T  1.19
20. IgG fusion IL-2 mutein E61W  1.18
21. IgG fusion IL-2 mutein E106W  1.18
22. IgG fusion IL-2 mutein F42M  1.18
23. IgG fusion IL-2 mutein K48V  1.18
24. IgG fusion IL-2 mutein E68L  1.16
25. IgG fusion IL-2 mutein K43W  1.16
26. IgG fusion IL-2 mutein K48S  1.16
27. IgG fusion IL-2 mutein M23I  1.16
28. IgG fusion IL-2 mutein P65R  1.15
29. IgG fusion IL-2 mutein T111W  1.15
30. IgG fusion IL-2 mutein T111H  1.14
31. IgG fusion IL-2 mutein P65Q  1.13
32. IgG fusion IL-2 mutein I92Y  1.12
33. IgG fusion IL-2 mutein D109H  1.1
34. IgG fusion IL-2 mutein P34W  1.1
35. IgG fusion IL-2 mutein H16K  1.09
36. IgG fusion IL-2 mutein I92V  1.08
37. IgG fusion IL-2 mutein T111N  1.08
38. IgG fusion IL-2 mutein P65N  1.07
39. IgG fusion IL-2 mutein S87T  1.07
40. IgG fusion IL-2 mutein L19F  1.06
41. IgG fusion IL-2 mutein D84S  1.05
42. IgG fusion IL-2 mutein D109W  1.05
43. IgG fusion IL-2 mutein E95N  1.05
44. IgG fusion IL-2 mutein E95Q  1.05
45. IgG fusion IL-2 mutein M23L  1.05
46. IgG fusion IL-2 mutein P65E  1.05
47. IgG fusion IL-2 mutein L19I  1.04
48. IgG fusion IL-2 mutein N88S  1.04
49. IgG fusion IL-2 mutein L12V  1.03
50. IgG fusion IL-2 mutein E95D  1.02
51. IgG fusion IL-2 mutein E95T  1.02
52. IgG fusion IL-2 mutein N71W  1.02
53. IgG fusion IL-2 mutein E15D  1.01
54. IgG fusion IL-2 mutein L12Y  1.01
55. IgG fusion IL-2 mutein E95S  1
56. IgG fusion IL-2 mutein E68W  0.997
57. IgG fusion IL-2 mutein M104H  0.989
58. IgG fusion IL-2 mutein I92W  0.986
59. IgG fusion IL-2 mutein D84T  0.96
60. IgG fusion IL-2 mutein D84E  0.957
61. IgG fusion IL-2 mutein L19V  0.953
62. IgG fusion IL-2 mutein E68F  0.946
63. IgG fusion IL-2 mutein L72F  0.939
64. IgG fusion IL-2 mutein E15S  0.932
65. IgG fusion IL-2 mutein L72R  0.93
66. IgG fusion IL-2 mutein D109M  0.906
67. IgG fusion IL-2 mutein K48I  0.868
68. IgG fusion IL-2 mutein M104I  0.851
69. IgG fusion IL-2 mutein S87E  0.825
